Results from US20220281980A1 (Bristol-Myers Squibb, published 2022).

T1: recombinant soluble human MICA*008 antigen (human, UniProt Q29983 24-307)
T1 construct: also called huIMICA-his allele *008; recombinant soluble MICA (allele 8)
T1 chain: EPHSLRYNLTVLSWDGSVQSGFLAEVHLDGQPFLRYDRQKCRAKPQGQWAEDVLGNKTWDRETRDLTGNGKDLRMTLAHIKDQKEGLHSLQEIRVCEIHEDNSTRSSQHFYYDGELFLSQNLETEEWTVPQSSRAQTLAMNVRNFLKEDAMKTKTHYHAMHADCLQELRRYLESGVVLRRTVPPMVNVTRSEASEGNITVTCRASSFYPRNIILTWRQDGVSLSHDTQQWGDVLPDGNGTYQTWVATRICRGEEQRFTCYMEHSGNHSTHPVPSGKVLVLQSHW

T2: human MICB expressed on transduced cells (human, UniProt Q29980 23-382)
T2 construct: also called MICB*005
T2 chain: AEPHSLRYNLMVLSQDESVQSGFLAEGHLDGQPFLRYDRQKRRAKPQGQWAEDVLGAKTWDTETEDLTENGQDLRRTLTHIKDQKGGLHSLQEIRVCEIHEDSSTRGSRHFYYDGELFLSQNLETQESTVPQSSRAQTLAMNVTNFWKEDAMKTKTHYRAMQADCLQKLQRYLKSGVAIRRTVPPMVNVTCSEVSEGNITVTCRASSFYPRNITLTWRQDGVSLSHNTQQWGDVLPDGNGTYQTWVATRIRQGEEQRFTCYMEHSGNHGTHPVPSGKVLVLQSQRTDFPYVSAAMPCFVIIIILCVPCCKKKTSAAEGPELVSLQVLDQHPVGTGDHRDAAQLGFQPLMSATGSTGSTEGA

T3: human MICA/B endogenously expressed on SW480 cells (human, UniProt Q29983 24-383)
T3 construct: whole, on cells
T3 sequence (looked up): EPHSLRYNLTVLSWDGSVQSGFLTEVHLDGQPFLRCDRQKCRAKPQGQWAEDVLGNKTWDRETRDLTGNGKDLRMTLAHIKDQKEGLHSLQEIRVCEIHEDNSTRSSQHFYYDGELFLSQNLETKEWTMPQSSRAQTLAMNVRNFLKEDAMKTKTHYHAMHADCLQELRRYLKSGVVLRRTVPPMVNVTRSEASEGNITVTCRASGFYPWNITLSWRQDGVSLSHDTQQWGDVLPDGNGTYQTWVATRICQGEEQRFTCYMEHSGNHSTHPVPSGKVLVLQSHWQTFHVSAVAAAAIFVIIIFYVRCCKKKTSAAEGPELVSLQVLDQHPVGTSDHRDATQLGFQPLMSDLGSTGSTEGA

T4: recombinant soluble human MICA*004 antigen (human, UniProt Q29983 24-307)
T4 construct: also called huIMICA-his allele *004
T4 chain: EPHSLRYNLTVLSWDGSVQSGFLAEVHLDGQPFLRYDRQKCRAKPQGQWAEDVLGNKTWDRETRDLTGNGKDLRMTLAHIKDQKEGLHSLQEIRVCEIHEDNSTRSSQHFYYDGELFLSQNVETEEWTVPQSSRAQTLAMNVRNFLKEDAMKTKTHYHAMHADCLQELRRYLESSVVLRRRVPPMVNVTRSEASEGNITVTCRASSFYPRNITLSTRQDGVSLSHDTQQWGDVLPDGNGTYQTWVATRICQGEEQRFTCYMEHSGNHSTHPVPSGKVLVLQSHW


Assays:
[1] = target: T1, recombinant soluble human MICA*008 …; assay: BLI (Octet) sandwich binning on soluble MICA allele 8, row antibody captured; competitor (second antibody): 24G11
Experimental: (§1) The binning experiments were performed on an Octet HTX instrument at 25° C. in HEPES buffered saline (10 mM HEPES pH 7.4, 150 mM NaCl, 0.05% v/v surfactant P20, and 1 mg/mL BSA). Anti-MICA/B antibodies and NKG2D-mFc were captured on anti-Fc tips and remaining capture sites were blocked with an excess of negative control IgG. Recombinant soluble MICA (allele 8) was bound and subsequent binding (“sandwiching”) of anti-MICA/B antibodies was tested.

[2] = target: T1, recombinant soluble human MICA*008 …; assay: BLI (Octet) sandwich binning on soluble MICA allele 8, row antibody captured; competitor (second antibody): MICA.2
Experimental: as §1

[3] = target: T2, human MICB expressed on transduced cells; assay: saturation binding of 125I-labelled antibody on CHO-MICB cells, 12500 per well (Scatchard analysis); x axis 'Ab' carries no unit, nM taken from paragraph 587
Experimental: (§2) Nonspecific binding was determined by binding in the presence of a titration of a 100 fold molar excess of unlabeled antibody and was subtracted from total counts per minute (CPM) to calculate specific binding. A linear standard curve of ¹²⁵I-MICA.36 concentration versus CPM was used to extrapolate specific activity, maximal nM bound ¹²⁵I-MICA.36 and thereby calculate receptor number per cell.
(§3) Specific activity of the iodinated MICA.36 was determined by plotting antibody titrations against the associated CPMs in a standard curve (FIG. 7A). The specific activity was calculated to be 164,214 CPM in 1 nM of ¹²⁵I-MICA.36. The number of receptors per cell was calculated by the following equation: (Bmax)×(Avogadro's number)×(Assay Volume)/# of cells per well.

[4] = target: T3, human MICA/B endogenously expressed on …; assay: saturation binding of 125I-labelled antibody on SW480 cells, 25,000 cells/well; fit of total binding, non-specific binding not subtracted; x axis without unit
Experimental: as §2, §3

[5] = target: T4, recombinant soluble human MICA*004 …; assay: SPR (Biacore 3000), antibody captured on Protein G chip, huMICA-his analyte; power of ten not given
Experimental: Kinetics and affinity of anti-MICA/B antibodies MICA.2, 19G6, 16A5, and 71C2 towards human MICA alleles (huIMICA-his allele *002, *004, *008, and *009) were also determined on a BIACORE 3000® instrument using the following conditions: [0571] Running Buffer: HES-EP running buffer [0572] Chip: CM5 Protein G Chip Fc1: Blank. Fc2-4: ˜200Rus [0573] Ab: 5 ug/mL, 10 uL @ 10 uL/min [0574] Ag binding: 5 min association, 7 min dissociation @ 25 uL/min, [0575] Regeneration: Glycine 1.7, 10 uL @ 100 uL/min followed by 60s wash by HES-EP

Row | Binder | simultaneous binding (0 = no, 1 = yes) [1] | simultaneous binding (0 = no, 1 = yes) [2] | Kd [3] [nM] | Kd of the total-binding curve [4] [nM] | koff [5] [s⁻¹]
1 | MICA.36 (antibody, V domains shown, it says that the name implies no specific constant region; Radioiodinated in the Scatchard assay; also called MICA.36 antibody) VH: QVQLVESGGGVVQPGRSLRLSCAASGFTFSNYAMHWVRQAPGEGLEWVALIWYDGSNKFYGDSVKGRFTISRDNSKNTLYLQMNSLSAEDTAVYYCAREGSGHYWGQGTLVTVSS VL: AIQLTQSPSSLSASVGDRVTITCRASQGISSALAWYQQKPGKVPKSLIYDASSLESGVPSRFSGSGSGTDFTLTISSLQPEDFATYYCQQFNSYPITFGQGTRLEIK | 0 | 1 | 1.36 | 0.871 | –
2 | 19G6 (antibody, V domains shown, Hybridoma antibody from human IgG transgenic mice, parent of MICA.36; also called 19G6 mAb; hybridoma 19G6) VH: QVQLVESGGGVVQPGRSLRLSCAASGFTFSNYAMHWVRQAPGEGLEWVALIWYDGSNKFYGDSVKGRFTISRDNSKNTLYLQMNSLSAEDTAVYYCAREGSGHYWGQGTLVTVSS VL: AIQLTQSPSSLSASVGDRVTITCRASQGISSALAWYQQKPGKVPKSLIYDASSLESGVPSRFSGSGSGTDFTLTISSLQPEDFATYYCQQFNSYPITFGQGTRLEIK | – | – | – | – | 2.28
3 | MICA.2 (antibody, human IgG1, kappa, V domains shown, 3F5 variable regions on human IgG1f and human kappa constant regions, made in CHO-S cells; also called 3F5; recombinant antibody of 3F5) VH: EVQLVESGGGLVQPGGSLRLSCAASGFTFSTYSMNWVRQAPGKGLEWVSYISYRSRTIYYADSVKGRFTISRDNARNSLYLQMNSLRDEDTAVYYCARWGYGSGGFDYWGQGTLVTVSS VL: not shown | 1 | 0 | – | – | 0.0284
4 | 24G11 (antibody, V domains shown, also called MICA.54; 24G11 (MICA.54)) VH: EVQLVQSGAEVKKPGESLKISCKGSGYSFTNYWIGWVRQMPGKGLEWLGIIHPGDSYTRYSPSFQGQVTISADKSISTAYLQWSSLKASDTAIYYCAREGIAATPFDYWGQGTLVTVSS VL: EIVLTQSPATLSLSPGERATLSCRASQSVSSYLAWFQQKPGQAPRLLIYDASNRATGIPARFSGSGSGTDFTLTISSLEPEDFAVYYCQQRSNWPPTFGQGTKVEIK | 0 | 1 | – | – | –
5 | 71C2 (antibody, V domains shown, Hybridoma antibody) VH: EVQLVESGGGLVQPGRSLRLSCAASGFTFNNYAMHWVRQAPGKGLEWVSGITWNSDSIGYADSVKGRFTISRDNAKNSLYLQMNSLRAEDTALYYCAKDSVLLWFGGMDVWGQGTTVTVSS VL: not shown | – | – | – | – | 0.0303
